A short description of the data set: protein stability index of a GFP-peptide fusion (yeast GPS) (PSI 1-4); higher = more stable; sorted into four equal gates, so the index is relative within each strain. The method, boiled down:
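For each peptide, the protein stability index sums the read frequency in every gate after multiplying it by the gate number. Read frequencies came from plasmids that were PCR-amplified from each gate and Illumina-sequenced, with reads assigned to strains by barcodes. The gates were four equal bins of GFP/Cherry fluorescence ratio applied to mid-log yeast in leucine-free medium carrying a pooled library of tiled 17-residue yeast protein peptides fused downstream of GFP on a Cherry-expressing plasmid.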

± gives the uncertainty stated by the source.

We go through 28 sequences from the supplement of paper PMC9732359.

For the sequence QSKLKDVVEYLDKVINK [RPN8], the protein stability index (doa10∆) stood at 2.73 ± 0.094, the protein stability index (pdr5∆) came to 2.32 ± 0.055, the protein stability index (san1∆) turned out to be 2.63 ± 0.073 and the protein stability index (ubr1∆) stood at 2.55 ± 0.046.
The sequence EQKLQTVLETLLSDVNQ [SMC3] came in with a protein stability index (ubr1∆) of 1.22 ± 0.13.
Turning to NEMLLKRVTKVKRLLFT [MTW1], the protein stability index (doa10∆) was determined as 1.26 ± 0.054, the protein stability index (pdr5∆) is 1.56 ± 0.049, the protein stability index (san1∆) is 1.21 ± 0.11 and the protein stability index (ubr1∆) is 1.42 ± 0.036.
The corresponding values for VSANTPKSLNSNININV [SWI1] are 3.14 ± 0.11, 2.64 ± 0.12, 2.84 ± 0.12 and 2.87 ± 0.093.
Turning to SASSKEFNFTNLQAKPL [YAR002W/NUP60], the protein stability index is 2.43 ± 0.072 (doa10∆), 2.26 ± 0.068 (pdr5∆), 2.46 ± 0.06 (san1∆) and 2.42 ± 0.051 (ubr1∆).
Take LASIPDIFITPTPVVTI [SSN2]: the protein stability index was 1.71 ± 0.054 (doa10∆), 1.65 ± 0.054 (pdr5∆), 1.45 ± 0.098 (san1∆) and 1.63 ± 0.044 (ubr1∆).
As for VSNPLIQRFFALHYLVP [COB], the protein stability index (doa10∆) worked out at 1.86 ± 0.054, the protein stability index (pdr5∆) came out at 1.88 ± 0.059, the protein stability index (san1∆) is 2.32 ± 0.072 and the protein stability index (ubr1∆) is 1.2 ± 0.041.
As to NLYMLVTTCVYLACKVE [SSN8], the protein stability index (san1∆) was 1.62 ± 0.25.
For TKVNNQLIKVAVHNGGR [RPL9A], the protein stability index runs as follows: (doa10∆) 1.92 ± 0.074; (pdr5∆) 1.52 ± 0.06; (san1∆) 1.78 ± 0.086; (ubr1∆) 2.4 ± 0.029.
Regarding DTPEGEACGLVKNLALM [RET1], the protein stability index was determined as 2.14 ± 0.098 (doa10∆), 2.01 ± 0.13 (pdr5∆), 3.21 ± 0.1 (san1∆) and 1.71 ± 0.28 (ubr1∆).
On to LNELETLIKKKQDEKKS [SMC2], for which the protein stability index by setting is: (doa10∆) 3.24 ± 0.087; (pdr5∆) 3.27 ± 0.092; (san1∆) 3.19 ± 0.063; (ubr1∆) 2.91 ± 0.055.
Sequence VSDHLDAIYRELTKNPN [SMC1] gave a protein stability index (doa10∆) of 2.87 ± 0.23.
Regarding GWWGHMGGPKQKGITSY [QCR8], the protein stability index came out at 3.16 ± 0.072 (doa10∆), 2.13 ± 0.08 (pdr5∆), 1.41 ± 0.14 (san1∆) and 1.67 ± 0.075 (ubr1∆).
As for HKQIHTTIFVKSTTPYV [POP7], the protein stability index is, setting by setting: (doa10∆) 2.15 ± 0.045; (pdr5∆) 2.31 ± 0.05; (san1∆) 2.15 ± 0.062; (ubr1∆) 1.82 ± 0.03.
In the case of RTKFVRSLVREIAGLSP [RPL36A], the protein stability index (doa10∆) came to 2.59 ± 0.19, the protein stability index (pdr5∆) is 2.71 ± 0.19, the protein stability index (san1∆) turned out to be 2.85 ± 0.086 and the protein stability index (ubr1∆) is 2.92 ± 0.09.
Regarding SEENIGSGLLKLSEIIL [SWI1], the protein stability index reads like this: (doa10∆) 3.2 ± 0.074; (pdr5∆) 3.02 ± 0.066; (san1∆) 2.92 ± 0.048; (ubr1∆) 3.37 ± 0.06.
Regarding DNTSHDEQDDDNVNSTT [BRN1], the protein stability index runs as follows: (doa10∆) 3 ± 0.073; (pdr5∆) 3.19 ± 0.088; (san1∆) 3.17 ± 0.1; (ubr1∆) 3.23 ± 0.062.
The corresponding values for GSPQMLANEERLSNEMH [RGR1] are 2.9 ± 0.074, 2.95 ± 0.071, 3.39 ± 0.051 and 2.93 ± 0.054.
Regarding VKSLLSEEKIRDYSKEI [SIR4], the protein stability index is 3.14 ± 0.3 (doa10∆), 2.48 ± 0.14 (pdr5∆) and 2.46 ± 0.14 (san1∆).
Regarding LYKTFFKRNAVFVGTIF [QCR9], the protein stability index runs as follows: (doa10∆) 1.78 ± 0.075; (pdr5∆) 1.36 ± 0.051; (san1∆) 1.39 ± 0.098; (ubr1∆) 1.36 ± 0.054.
KRLTEDERIEKELNTER [CDC53]: the protein stability index was found to be 2.89 ± 0.16 (pdr5∆), 2.33 ± 0.1 (san1∆) and 2.31 ± 0.12 (ubr1∆).
SVKLDLQDDEDHKFPIR [BRN1]: the protein stability index was found to be 2.99 ± 0.18 (doa10∆), 2.88 ± 0.098 (pdr5∆), 2.76 ± 0.14 (san1∆) and 2.22 ± 0.17 (ubr1∆).
For ELPKFILSDSPLELSAP [DIS3], in that order: 2.5 ± 0.095, 3.37 ± 0.17, 2.85 ± 0.19 and 3.04 ± 0.092.
Take IQKGKFTLLDFKKQMQT [SRP54]: the protein stability index was found to be 1.27 ± 0.13 (doa10∆), 1.85 ± 0.22 (pdr5∆), 1.07 ± 0.21 (san1∆) and 1.7 ± 0.29 (ubr1∆).
ILNLYSSAHLIRINDEP [YML103C/NUP188]: the protein stability index runs as follows: (doa10∆) 1.99 ± 0.096; (pdr5∆) 2.18 ± 0.18; (san1∆) 1.8 ± 0.26; (ubr1∆) 1.77 ± 0.092.
Consider NCKKKKKRKKKNKSAID [RMP1], for which the protein stability index (doa10∆) is 2.57 ± 0.1, the protein stability index (pdr5∆) amounted to 2.67 ± 0.13, the protein stability index (san1∆) was 2.79 ± 0.089 and the protein stability index (ubr1∆) came to 3.37 ± 0.16.
For NEVYSAYVVNDTAPKPN [DLS1], in that order: 3.47 ± 0.12, 3.1 ± 0.12, 2.95 ± 0.099 and 3.25 ± 0.066.
As to RRIKEAEENLKKRIRLP [YIL149C/MLP2], the protein stability index reads like this: (doa10∆) 2.26 ± 0.08; (pdr5∆) 2.23 ± 0.067; (san1∆) 1.88 ± 0.12; (ubr1∆) 2.02 ± 0.07.
